Results from patent publication US11472877 (Alector, dated 2022).
Positions count from the first letter of the chain named.

Key:
human TREM2 on BWZ cells [1] = target: T1, human TREM2 on BWZ cells (human, UniProt Q9NZC2 19-230); assay: FACS, BWZ cells
T1 construct: whole, on cells; not tied to the cell line; also called BWZ Human TREM2
T1 sequence (looked up): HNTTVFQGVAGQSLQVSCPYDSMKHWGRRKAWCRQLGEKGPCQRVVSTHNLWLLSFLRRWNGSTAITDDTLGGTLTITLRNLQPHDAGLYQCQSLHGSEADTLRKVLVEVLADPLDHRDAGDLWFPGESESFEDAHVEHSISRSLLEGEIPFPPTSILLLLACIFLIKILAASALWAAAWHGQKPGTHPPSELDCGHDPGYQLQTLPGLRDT

mouse TREM2 on BWZ cells [2] = target: T2, mouse TREM2 on BWZ cells (mouse, UniProt Q99NH8 19-227); assay: FACS, BWZ cells
T2 construct: whole, on cells; also called BWZ Mouse TREM2
T2 sequence (looked up): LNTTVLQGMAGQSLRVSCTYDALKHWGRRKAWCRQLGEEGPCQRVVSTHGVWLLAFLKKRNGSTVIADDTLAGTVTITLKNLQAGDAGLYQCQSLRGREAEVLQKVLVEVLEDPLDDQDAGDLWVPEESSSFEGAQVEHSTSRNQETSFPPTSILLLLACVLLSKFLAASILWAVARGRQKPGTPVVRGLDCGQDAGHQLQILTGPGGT

human TREM2 on BWZ cells [3] = target: T1, human TREM2 on BWZ cells; assay: FACS, BWZ human TREM2
mouse TREM2 on BWZ cells [4] = target: T2, mouse TREM2 on BWZ cells; assay: FACS, BWZ mouse TREM2
mouse TREM1 on CHO cells = target: T3, mouse TREM1 on CHO cells (mouse, UniProt Q9JKE2 21-230); assay: FACS, CHO mouse TREM1
T3 construct: also called CHO-mT1
T3 sequence: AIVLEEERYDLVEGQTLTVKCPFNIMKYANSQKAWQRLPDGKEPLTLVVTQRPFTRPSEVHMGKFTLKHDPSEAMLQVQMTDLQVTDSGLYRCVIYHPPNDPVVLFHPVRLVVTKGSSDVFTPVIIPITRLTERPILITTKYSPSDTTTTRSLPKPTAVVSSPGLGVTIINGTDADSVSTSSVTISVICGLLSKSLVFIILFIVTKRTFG

B1: T1-27 (antibody, IgG1, V domains shown)
VH: QVQLQESGPGLVKPSQTLSLTCTVSGGSISSGGYYWSWIRQHPGKGLEWIGYIYYSGSTYYNPSLKSRVTISVDTSKNQFSLKLSSVTAADTAVYYCARDSSIAGRATLSFDYWGQGTLVTVSS
VL: DIQMTQSPSSLSASVGDRVTITCRASQSISSYLNWYQQKPGKAPKLLIYAASSLQSGVPSRFSGSGSGTDFTLTISSLQPEDFATYYCQQSFYDPITFGGGTKVEIK
notes: huIgG1; also called TI-27
binding result (human TREM2 on BWZ cells [1]): no binding
binding result (mouse TREM2 on BWZ cells [2]): no binding
FOB Fold Over Background (human TREM2 on BWZ cells [3]): 0.8 fold
FOB Fold Over Background (mouse TREM2 on BWZ cells [4]): 1.2 fold
FOB Fold Over Background (mouse TREM1 on CHO cells): 523 fold

B2: T1-28 (antibody, IgG1, V domains shown)
VH: EVQLVESGGGLVKPGGSLRLSCAASGFTFSSYSMNWVRQAPGKGLEWVSSISSSSNYIYYADSVKGRFTISRDNAKNSLYLQMNSLRAEDTAVYYCARGPSQYYYDSSAIEAFDIWGQGTMVTVSS
VL: EIVLTQSPATLSVSPGERATLSCRASQSVGSNLAWYQQKPGQAPRLLIYGASTRATGIPARFSGSGSGTEFTLTISSLQSEDFAVYYCQQYLYFPLTFGGGTKVEIK
notes: huIgG1; also called TI-28
binding result (human TREM2 on BWZ cells [1]): no binding
binding result (mouse TREM2 on BWZ cells [2]): no binding
FOB Fold Over Background (human TREM2 on BWZ cells [3]): 0.6 fold
FOB Fold Over Background (mouse TREM2 on BWZ cells [4]): 1.1 fold
FOB Fold Over Background (mouse TREM1 on CHO cells): 408 fold

B3: T1-29 (antibody, IgG1, V domains shown)
VH: QLQLQESGPGLVKPSETLSLTCTVSGGSISSSSYYWGWIRQPPGKGLEWIGSIYYSGSTYYNPSLKSRVTISVDTSKNQFSLKLSSVTAADTAVYYCARDGGGTAQADGAYYYGMDVWGQGTTVTVSS
VL: EIVLTQSPATLSLSPGERATLSCRASQSVSSYLAWYQQKPGQAPRLLIYDASNRATGIPARFSGSGSGTDFTLTISSLEPEDFAVYYCQQGVNYPFTFGGGTKVEIK
notes: huIgG1; also called TI-29
binding result (human TREM2 on BWZ cells [1]): no binding
binding result (mouse TREM2 on BWZ cells [2]): no binding
FOB Fold Over Background (human TREM2 on BWZ cells [3]): 0.7 fold
FOB Fold Over Background (mouse TREM2 on BWZ cells [4]): 1.2 fold
FOB Fold Over Background (mouse TREM1 on CHO cells): 401 fold

B4: T1-30 (antibody, IgG1, V domains shown)
VH: QLQLQESGPGLVKPSETLSLTCTVSGGSISSSSYYWGWIRQPPGKGLEWIGSIYYSGSTYYNPSLKSRVTISVDTSKNQFSLKLSSVTAADTAVYYCARGRKAAAGIDEAEYFQHWGQGTLVTVSS
VL: DIQMTQSPSSVSASVGDRVTITCRASQGISSWLAWYQQKPGKAPKLLIYAASSLQSGVPSRFSGSGSGTDFTLTISSLQPEDFATYYCQQVISFPTFGGGTKVEIK
notes: huIgG1; also called TI-30
binding result (human TREM2 on BWZ cells [1]): no binding
binding result (mouse TREM2 on BWZ cells [2]): no binding
FOB Fold Over Background (human TREM2 on BWZ cells [3]): 0.5 fold
FOB Fold Over Background (mouse TREM2 on BWZ cells [4]): 0.8 fold
FOB Fold Over Background (mouse TREM1 on CHO cells): 453 fold

B5: T1-31 (antibody, IgG1, V domains shown)
VH: QLQLQESGPGLVKPSETLSLTCTVSGGSISSSSYYWGWIRQPPGKGLEWIGSIYYSGSTYYNPSLKSRVTISVDTSKNQFSLKLSSVTAADTAVYYCARDRRMWDPYGMDVWGQGTTVTVSS
VL: DIQMTQSPSSLSASVGDRVTITCQASQDISNYLNWYQQKPGKAPKLLIYDASNLETGVPSRFSGSGSGTDFTFTISSLQPEDIATYYCQQYDDFPPITFGGGTKVEIK
notes: huIgG1; also called TI-31
binding result (human TREM2 on BWZ cells [1]): no binding
binding result (mouse TREM2 on BWZ cells [2]): no binding
FOB Fold Over Background (human TREM2 on BWZ cells [3]): 0.5 fold
FOB Fold Over Background (mouse TREM2 on BWZ cells [4]): 0.9 fold
FOB Fold Over Background (mouse TREM1 on CHO cells): 447 fold

B6: T1-32 (antibody, IgG1, V domains shown)
VH: QLQLQESGPGLVKPSETLSLTCTVSGGSISSSSYYWGWIRQPPGKGLEWIGSIYYSGSTYYNPSLKSRVTISVDTSKNQFSLKLSSVTAADTAVYYCARDAPAVVGESPAFDIWGQGTMVTVSS
VL: B1 VL with S31R, F92L, Y93D, D94L, I96F
notes: huIgG1; also called TI-32
binding result (human TREM2 on BWZ cells [1]): no binding
binding result (mouse TREM2 on BWZ cells [2]): no binding
FOB Fold Over Background (human TREM2 on BWZ cells [3]): 0.9 fold
FOB Fold Over Background (mouse TREM2 on BWZ cells [4]): 1.2 fold
FOB Fold Over Background (mouse TREM1 on CHO cells): 380 fold

B7: T1-54 (antibody, IgG1, V domains shown)
VH: QVQLVQSGAEVKKPGSSVKVSCKASGGTFSSYAISWVRQAPGQGLEWMGGIIPIFGTANYAQKFQGRVTITADESTSTAYMELSSLRSEDTAVYYCARHWYALGSFDIWGQGTMVTVSS
VL: B3 VL with L4M, A51S, G91H, V92D, N93V, Y94W, F96I
notes: huIgG1; also called TI-54; ADI-19129
binding result (human TREM2 on BWZ cells [1]): no binding
binding result (mouse TREM2 on BWZ cells [2]): no binding
FOB Fold Over Background (human TREM2 on BWZ cells [3]): 1.1 fold
FOB Fold Over Background (mouse TREM2 on BWZ cells [4]): 1.2 fold
FOB Fold Over Background (mouse TREM1 on CHO cells): 3.1 fold

B8: T1-80 (antibody, IgG1, V domains shown)
VH: QVQLVESGGGVVQPGRSLRLSCAASGFTFSSYGMHWVRQAPGKGLEWVALIWYDGSNKYYADSVKGRFTISRDNSKNTLYLQMNSLRAEDTAVYYCARELIVGATGGLTYYYGMDVWGQGTTVTVSS
VL: B2 VL with L4M, Y91D, L92H, Y93D, F94R
notes: huIgG1; also called TI-80; ADI-19159
binding result (human TREM2 on BWZ cells [1]): no binding
binding result (mouse TREM2 on BWZ cells [2]): no binding
FOB Fold Over Background (human TREM2 on BWZ cells [3]): 1 fold
FOB Fold Over Background (mouse TREM2 on BWZ cells [4]): 0.9 fold
FOB Fold Over Background (mouse TREM1 on CHO cells): 1.2 fold
